The results in this text go back to US20150071927A1 (UNIVERSITY OF HONG KONG, published 2015).

Test [1] addresses T1, recombinant IGF-IR ectodomain (His-tagged) (human, UniProt P08069 31-935).
T1 construct: also called recombinant IGF-IR (coated); recombinant IGF-IR ectodomains
As to the kind of experiment: indirect ELISA, IGF-IR ectodomain coated, biotinylated HER2 ectodomain detected with streptavidin-HRP. The procedure: Recombinant ectodomains of IGF-IR or HER2 ([…] in both cases) were coated on 96-well high-binding ELISA plates at 4° C. overnight. The plates were washed and blocked with 3% BSA in PBS at 37° C. for 2 h. Two-fold serially diluted mAb Herceptin or m590 were added to the wells and the bound mAbs were detected by HRP conjugated anti-human Fc as secondary antibody and TMB substrate. Optical density at 450 nm (OD450 nm) was measured after color development at RT for 30 min. In the case of Bi-Ab, recombinant IGF-IR ectodomains were coated on the plates. Following addition of 2-fold serially diluted Bi-Ab and incubation at RT for 2 h, plates were washed and biotinylated HER2 ectodomain (2 μg/ml) was added to each well. Bound HER2 ectodomains were detected by HRP conjugated streptavidin and TMB substrate.
Following addition of the anti-HER2/anti-IGF-IR antibodies to recombinant IGF-IR-coated plates biotinylated recombinant HER2 ectodomains were added. Bound HER2 ectodomains were detected by HRP conjugated streptavidin and TMB substrate.

Test [2] deals with T2, membrane-associated IGF-IR on SKOV-3 cells (human, UniProt P08069 31-936). The experiment in a line: flow cytometry on SKOV-3 cells. Here is the method: (§1) MCF-7 or SKOV-3 cells were detached using enzyme-free cell-disassociation buffer (Invitrogen), washed twice with PBS, and incubated at 4° C. for 2 h with antibodies in fluorescence-activated cell sorting (FACS) buffer (1% FBS in PBS). Cell surface bound antibodies were detected using PE conjugated to anti-human Fc by incubation at 4° C. for 1 h followed by washing twice with FACS buffer and fixation with 2% paraformaldehyde in FACS buffer. The stained cells were analyzed with a BD flow cytometer and FlowJo software.
In general terms: A flow cytometer gives signals particle by particle.

Test [3] deals with T2, membrane-associated IGF-IR on SKOV-3 …. The experiment in a line: flow cytometry on SKOV-3 cells, MFI against antibody concentration. Here is the method:
as §1

T2 sequence (P08069 31-936 limits assumed): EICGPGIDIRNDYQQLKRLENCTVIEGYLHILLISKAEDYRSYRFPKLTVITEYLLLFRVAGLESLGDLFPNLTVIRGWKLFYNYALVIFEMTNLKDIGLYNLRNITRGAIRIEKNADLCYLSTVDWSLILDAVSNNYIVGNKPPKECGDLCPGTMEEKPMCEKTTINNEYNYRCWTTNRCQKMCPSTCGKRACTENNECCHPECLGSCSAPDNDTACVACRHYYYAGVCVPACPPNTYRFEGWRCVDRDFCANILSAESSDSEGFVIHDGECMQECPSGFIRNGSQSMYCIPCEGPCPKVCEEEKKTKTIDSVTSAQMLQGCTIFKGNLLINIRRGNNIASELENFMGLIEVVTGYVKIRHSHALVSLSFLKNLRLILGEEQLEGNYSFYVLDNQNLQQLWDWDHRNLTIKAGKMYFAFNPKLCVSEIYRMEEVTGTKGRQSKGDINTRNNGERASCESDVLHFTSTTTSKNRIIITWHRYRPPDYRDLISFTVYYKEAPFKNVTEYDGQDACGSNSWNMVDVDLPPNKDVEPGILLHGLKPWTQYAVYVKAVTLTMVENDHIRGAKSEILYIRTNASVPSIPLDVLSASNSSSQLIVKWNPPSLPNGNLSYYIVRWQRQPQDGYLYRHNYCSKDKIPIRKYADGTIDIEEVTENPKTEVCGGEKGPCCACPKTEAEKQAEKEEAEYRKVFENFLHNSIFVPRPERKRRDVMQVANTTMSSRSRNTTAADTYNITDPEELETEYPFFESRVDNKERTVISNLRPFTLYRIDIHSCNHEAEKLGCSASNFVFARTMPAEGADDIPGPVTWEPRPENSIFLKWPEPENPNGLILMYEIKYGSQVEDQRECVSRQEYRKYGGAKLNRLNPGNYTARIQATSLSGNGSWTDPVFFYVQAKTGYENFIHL
T1 sequence (P08069 31-935): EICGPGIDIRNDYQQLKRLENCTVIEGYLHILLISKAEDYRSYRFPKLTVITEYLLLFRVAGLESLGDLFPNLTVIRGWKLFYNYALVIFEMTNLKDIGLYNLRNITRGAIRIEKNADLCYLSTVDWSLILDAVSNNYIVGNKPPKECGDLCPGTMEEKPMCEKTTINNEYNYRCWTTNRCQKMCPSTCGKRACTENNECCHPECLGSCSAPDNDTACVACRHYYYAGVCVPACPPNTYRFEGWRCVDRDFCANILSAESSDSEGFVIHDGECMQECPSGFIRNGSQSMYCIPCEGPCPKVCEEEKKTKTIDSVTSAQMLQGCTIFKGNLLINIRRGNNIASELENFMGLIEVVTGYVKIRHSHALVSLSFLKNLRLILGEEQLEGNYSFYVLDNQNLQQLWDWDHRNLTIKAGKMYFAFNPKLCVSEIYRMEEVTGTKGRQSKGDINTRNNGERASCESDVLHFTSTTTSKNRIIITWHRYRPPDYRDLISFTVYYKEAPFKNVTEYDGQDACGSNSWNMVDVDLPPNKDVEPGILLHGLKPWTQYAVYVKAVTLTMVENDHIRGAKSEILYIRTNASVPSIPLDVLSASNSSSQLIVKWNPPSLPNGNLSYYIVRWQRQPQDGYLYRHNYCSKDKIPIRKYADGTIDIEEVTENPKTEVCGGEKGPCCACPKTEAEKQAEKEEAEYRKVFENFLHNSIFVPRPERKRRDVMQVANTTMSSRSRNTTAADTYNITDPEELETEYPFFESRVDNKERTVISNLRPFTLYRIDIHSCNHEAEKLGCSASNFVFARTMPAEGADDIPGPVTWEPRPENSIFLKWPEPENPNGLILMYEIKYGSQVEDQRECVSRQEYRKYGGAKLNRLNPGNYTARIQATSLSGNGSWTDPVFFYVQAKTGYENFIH

B1: anti-HER2/anti-IGF-IR bi-specific antibody (Bi-Ab) (bispecific antibody, human IgG1, kappa)
heavy 1: not shown
light 1: not shown
heavy 2: not shown
light 2: QIVLTQSPAIMSASPGEKVTITCSASSSVSYIHWFQQKPGTSPKVWIYGTSNLASGVPARFTGSGSGTSYSLTISRMEAEDAATYYCQQRSSYPFTFGSGTKLEIKRTVAAPSVFIFPPSDEQLKSGTASVVCLLNNFYPREAKVQWKVDNALQSGNSQESVTEQDSKDSTYSLSSTLTLSKADYEKHKVYACEVTHQGLSLPVTKSLNRREC
notes: also called anti-IGF-IR/anti-HER2 hybrid IgG; copies: 1 + 1 + 1 + 1
As to B1, the binding result in test [1] and in test [2] was “binds” in each case.

B2: m590 anti-IGF-IR mouse/human chimeric antibody (antibody, human IgG1, kappa, V domains shown)
VH: EVQLQQSGPELEQPGSSVKISCKASGYSFTAYYMHWVKQSHGKSLEWIGRINPDNGGNSYNQKFKGKAILTVDKSSNTAYMELRSLTSEDSAVYYCAKSTSYDYDGYWYFDVWGAGTTVTVSS
VL: QIVLTQSPAIMSASPGEKVTITCSASSSVSYIHWFQQKPGTSPKVWIYGTSNLASGVPARFTGSGSGTSYSLTISRMEAEDAATYYCQQRSSYPFTFGSGTKLEIKR
notes: also called human/mouse chimeric mAb m590
Turning to B2, the binding result in test [3] is “binds”.
